Experimental data published in article PMC2920321, “Characterization of ftsZ Mutations that Render Bacillus subtilis Resistant to MinC” (PLoS ONE, 2010).

B1: wild type FtsZ (Bacillus subtilis) [B. subtilis] / itself (parent)
chain: MLEFETNIDGLASIKVIGVGGGGNNAVNRMIENEVQGVEYIAVNTDAQALNLSKAEVKMQIGAKLTRGLGAGANPEVGKKAAEESKEQIEEALKGADMVFVTAGMGGGTGTGAAPVIAQIAKDLGALTVGVVTRPFTFEGRKRQLQAAGGISAMKEAVDTLIVIPNDRILEIVDKNTPMLEAFREADNVLRQGVQGISDLIATPGLINLDFADVKTIMSNKGSALMGIGIATGENRAAEAAKKAISSPLLEAAIDGAQGVLMNITGGTNLSLYEVQEAADIVASASDQDVNMIFGSVINENLKDEIVVTVIATGFIEQEKDVTKPQRPSLNQSIKTHNQSVPKREPKREEPQQQNTVSRHTSQPADDTLDIPTFLRNRNKRG

Variants of: B1
Test: sedimentation assay (ultracentrifugation)
Conditions: with itself, 10 µM FtsZ, 50 mM Hepes/NaOH, 50 mM KCl, 10 mM MgCl2, pH 7.5, 30°C, 5 min, read off a plot

Work on chain 1 A285T yielded a response (% FtsZ in pellet) (1 mM GDP (control)) of 28 and a response (% FtsZ in pellet) (1 mM GTP) of 25.

chain 1 S219L showed a response (% FtsZ in pellet) (1 mM GDP (control)) of 16 and a response (% FtsZ in pellet) (1 mM GTP) of 51.

With chain 1 L302P Q353R the response (% FtsZ in pellet) (1 mM GDP (control)) was 18 and the response (% FtsZ in pellet) (1 mM GTP) was 29.
